From the supplement of paper PMC9112550, “Optimization of the antimicrobial peptide Bac7 by deep mutational scanning” (BMC Biology, 2022)

Test system: Escherichia coli TOP10
Test: shrunken log2 fold change of peptide-encoding DNA abundance (4.5 h post-induction vs induction); higher = less antimicrobial activity (less host growth inhibition)
Conditions: time post-induction: 4.5 h; library: site-saturation at positions 5, 18, 19, 20
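Also: peptides expressed intracellularly from a pBAD plasmid library in pooled LB shake-flask culture, induced with 0.3% L-arabinose, DNA abundance read by NGS, three biological replicates, DESeq2 with apeglm shrinkage.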

Sequence	shrunken log2 fold change
RRIRDRPPRLPRPRPRPHGQPRP	0.237
RRIRDRPPRLPRPRPRPHIPPRP	2.08
RRIRDRPPRLPRPRPRPHIVPRP	-0.146
RRIRDRPPRLPRPRPRPHKEPRP	-0.00521
RRIRDRPPRLPRPRPRPHKIPRP	-0.524
RRIRDRPPRLPRPRPRPHLHPRP	-0.0995
RRIRDRPPRLPRPRPRPHLKPRP	0.143
RRIRDRPPRLPRPRPRPHLTPRP	0.176
RRIRDRPPRLPRPRPRPHMFPRP	-0.0389
RRIRDRPPRLPRPRPRPHNAPRP	-0.0997
RRIRDRPPRLPRPRPRPHNLPRP	0.156
RRIRDRPPRLPRPRPRPHPKPRP	-0.149
RRIRDRPPRLPRPRPRPHQCPRP	-0.0903
RRIRDRPPRLPRPRPRPHRGPRP	-0.0201
RRIRDRPPRLPRPRPRPHSGPRP	-0.0339
RRIRDRPPRLPRPRPRPHSNPRP	0.0359
RRIRDRPPRLPRPRPRPHSYPRP	-0.0739
RRIRDRPPRLPRPRPRPHTFPRP	-0.111
RRIRDRPPRLPRPRPRPHTPPRP	0.0203
RRIRDRPPRLPRPRPRPHVTPRP	-0.631
RRIRDRPPRLPRPRPRPHYNPRP	-0.635
RRIRDRPPRLPRPRPRPHYSPRP	-0.16
RRIRDRPPRLPRPRPRPICHPRP	0.139
RRIRDRPPRLPRPRPRPICVPRP	-0.109
RRIRDRPPRLPRPRPRPIEFPRP	0.144

Sequence	shrunken log2 fold change
RRIRDRPPRLPRPRPRPIFDPRP	0.0515
RRIRDRPPRLPRPRPRPIFGPRP	0.0916
RRIRDRPPRLPRPRPRPIFIPRP	-0.345
RRIRDRPPRLPRPRPRPIFKPRP	-0.118
RRIRDRPPRLPRPRPRPIHHPRP	-0.649
RRIRDRPPRLPRPRPRPIHKPRP	-0.275
RRIRDRPPRLPRPRPRPIKEPRP	-0.015
RRIRDRPPRLPRPRPRPIKPPRP	-0.00115
RRIRDRPPRLPRPRPRPILIPRP	-0.0335
RRIRDRPPRLPRPRPRPILKPRP	0.0239
RRIRDRPPRLPRPRPRPINHPRP	-0.229
RRIRDRPPRLPRPRPRPIPKPRP	-0.0116
RRIRDRPPRLPRPRPRPIRAPRP	0.0872
RRIRDRPPRLPRPRPRPIRIPRP	-0.0935
RRIRDRPPRLPRPRPRPISIPRP	0.0218
RRIRDRPPRLPRPRPRPITKPRP	0.283
RRIRDRPPRLPRPRPRPIVMPRP	-0.0257
RRIRDRPPRLPRPRPRPIYAPRP	-0.288
RRIRDRPPRLPRPRPRPKASPRP	0.224
RRIRDRPPRLPRPRPRPKAVPRP	-0.00884
RRIRDRPPRLPRPRPRPKAYPRP	0.053
RRIRDRPPRLPRPRPRPKCEPRP	-0.351
RRIRDRPPRLPRPRPRPKDFPRP	-0.00804
RRIRDRPPRLPRPRPRPKEKPRP	-0.0263
RRIRDRPPRLPRPRPRPKEMPRP	-0.00146

Sequence	shrunken log2 fold change
RRIRDRPPRLPRPRPRPKEQPRP	0.0816
RRIRDRPPRLPRPRPRPKFFPRP	0.136
RRIRDRPPRLPRPRPRPKFSPRP	-0.023
RRIRDRPPRLPRPRPRPKFVPRP	0.0202
RRIRDRPPRLPRPRPRPKGFPRP	-0.073
RRIRDRPPRLPRPRPRPKIDPRP	0.0277
RRIRDRPPRLPRPRPRPKKHPRP	-0.0344
RRIRDRPPRLPRPRPRPKKYPRP	-0.239
RRIRDRPPRLPRPRPRPKMPPRP	-0.0144
RRIRDRPPRLPRPRPRPKMWPRP	0.123
RRIRDRPPRLPRPRPRPKMYPRP	0.0269
RRIRDRPPRLPRPRPRPKNTPRP	-0.226
RRIRDRPPRLPRPRPRPKPFPRP	0.013
RRIRDRPPRLPRPRPRPKPKPRP	0.254
RRIRDRPPRLPRPRPRPKQPPRP	-0.0112
RRIRDRPPRLPRPRPRPKRRPRP	0.529
RRIRDRPPRLPRPRPRPKSRPRP	0.0765
RRIRDRPPRLPRPRPRPKTGPRP	-0.111
RRIRDRPPRLPRPRPRPKTLPRP	-0.21
RRIRDRPPRLPRPRPRPKVPPRP	-0.00145
RRIRDRPPRLPRPRPRPLDMPRP	-0.08
RRIRDRPPRLPRPRPRPLDNPRP	-0.0187
RRIRDRPPRLPRPRPRPLFNPRP	-0.375
RRIRDRPPRLPRPRPRPLFYPRP	-0.258
RRIRDRPPRLPRPRPRPLGHPRP	0.0421
